System: MS2 coat protein
Test: apparent KD of MS2 coat protein; designed switch direction (-1 OFF switch, 1 ON switch): 1; higher = weaker reporter binding
Procedure, shortened: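 Designed RNA switches were transcribed on Illumina chips by stalled E. coli RNA polymerase and titrated with SNAP-549-labelled MS2 coat protein from 0.7 or 1.5 nM, doubling to 3 µM. Step length ran from 0.8–1.5 h at the lowest concentration to 10–20 min at the highest. The apparent KD is the median over clusters for each design, from curve-fitted normalised cluster fluorescence.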

[1] = input ligand: microRNA oligo, concentration not stated
[2] = Eterna round: R95, input ligand: FMN 200 uM
[3] = Eterna round: R95, input ligand: microRNA oligo, concentration not stated
[4] = Eterna round: R95, input ligand: none

Row | Sequence | apparent KD of MS2 coat protein (input ligand: FMN 200 uM) [nM] | apparent KD of MS2 coat protein [1] [nM] | apparent KD of MS2 coat protein (input ligand: none) [nM] | apparent KD of MS2 coat protein [2] [nM] | apparent KD of MS2 coat protein [3] [nM] | apparent KD of MS2 coat protein [4] [nM]
1 | AAGAAACAUGAGGAUCACCCAUGUAGAAAUAUGGGAGGAUAUACGAAGACGAAAGUCAAAGUAGAAGGCCUAAAAG [Mat - Same State 1 - Eli mod - D107] (Eterna round: R96, puzzle: Same State 1) | 23.4 | 54 | 110 |  |  | 
2 | ACAAGACAUGAGGAUCACCCAUGUCCCAAUGACACAGGAUAUCGGUAGGCAUAGCCUACGCGAGAAGGGUGACUUC [Same State 1 - Mod of Vinnie Gere v.1] (puzzle: Same State 1) |  |  |  | 198 | 68.3 | 73
3 | ACAAGCUUUUUGCUCAUCUUAUGUCCGAAACAUGAGGAUCACCCAUGUGUAGAUUAUGUGUUGUUUUUGAUACGAGA [JR_SHM208A_Sub065] (puzzle: Sensor for hsa-mir-208a) |  |  |  | 68.1 | 28.4 | 80.3
4 | CCGGAUAAUGGAGGAUAUGGAGCCUUAUUGGCUCCAGAAGGCUAACAUGAGGAUCACCCAUGUUUUCCGGCGGUCAAUAGACCG [Eli NG1ss - 63] (Eterna round: R96, puzzle: Same State NG 1) | 10 | 11.4 | 18.2 |  |  | 
5 | ACCCGCGACGGAGGAUAUGGGCACUCGGCGGAAUAAACCGCCAUAACAUGAGGAUCACCCAUGUCCCAGAAGGCCGUCGCAAUC [Zaonesdive] (Eterna round: R96, puzzle: Same State NG 2) | 107 | 303 | 2620 |  |  | 
6 | GAGUAGUUAAAAGGAUAUUGAUUAUUGUAGGAUCAAGAAGGUUUUAACAUGAGGAUCACCCAUGUAGGACUAUUCCUGUGAAAA [Parity 92 - Jieux - Same State NG 1] (Eterna round: R96, puzzle: Same State NG 1) |  | 10.9 |  |  |  | 
7 | UCUUGGUUUUUGCUCGUUUUUUGUGUUGAACAUGAGGAUCACCCAUGUAUUGUACGGUCCAGUUUGAUAGUGGUCCG [JMF 33] (puzzle: Sensor for hsa-mir-208a) |  |  |  | 25.6 | 13.6 | 29.9
8 | UUAUAACAUGAGGAUCACCCAUGUCAACAAAGUCGAGGAUAUGGGCAAGAAGUGAGAGAACCAGAAGGCGAAUAUU [Mat - Same State 1 - Mod of UCT - D30] (puzzle: Same State 1) |  |  |  | 72 | 88.7 | 97.4
9 | AGCAGAGAAAUAGGAUAUGGCUGAGACAUGACGGCGGUACAUGAGGAUCACCCAUGUCCGCAAAGCCAGAAGGGUUUUGAAUGU [Ticecexe] (Eterna round: R96, puzzle: Same State NG 2) | 13.7 | 16.5 | 33.4 |  |  | 
10 | AGCGAGAUAGGCAAGGAUAUGCUGGGUUUCACAUGAGGAUCACCCAUGUCAUUGGUUAUGUCCGAGCAGAAGGUGCAUUCUCUUU [ak bound state multiloop solution 2] (puzzle: Same State 2) |  |  |  |  | 250 | 
11 | UUGAAGAAUUAAGGAUAUUGAGUACAUAUGUAAAACAUGAGGAUCACCCAUGUGGGUUGCGGUAUCGAGAAGGUAAAUUACUAG [Mat - same State NG 2 - JL mod - D69] (Eterna round: R96, puzzle: Same State NG 2) | 69.9 | 66.2 | 65.9 |  |  | 
12 | UGGUACAUGGGAGGAUAUCAUGUAGAAACAUGAGGAUCACCCAUGUAGAUGGCACGAUUCGUGAAUGAGAAGGCCCAUGUACCU [JL SSNG1 3.60] (Eterna round: R96, puzzle: Same State NG 2) | 36.8 | 38.2 | 52.8 |  |  | 
13 | GGUCCAUCAUGAGGAUAUGGCACCUUAUUGGUGCCAGAAGGCAUGUAAAUUAUAAUAACAUGAGGAUCACCCAUGUAUUGGACC [Eli NG1ss - 95] (Eterna round: R96, puzzle: Same State NG 1) | 44.6 | 218 | 492 |  |  | 
14 | GACCGCGAGGGAGGAUAUGGAGCCUUAUUGGCUCCAGAAGGUCCAUAAGGGACAUGAGGAUCACCCAUGUGGGUUGAAGCGGUC [Fiskers NG1ss - 36] (Eterna round: R96, puzzle: Same State NG 1) |  | 108 |  |  |  | 
15 | GGCCAGAGUCAAGGAUAUGCUACCGUUUCGGUAGCAGAAGGUGAUCACAUGAGGAUCACCCAUGUUUACUGCGAGAGCAUGGCC [JL SSNG1 3.68] (Eterna round: R96, puzzle: Same State NG 1) | 809 | 103 | 34.1 |  |  | 
16 | GUAGCAUACCGAGGAUAUUCAUAUUAUAACAUGAGGAUCACCCAUGUAGGUCGAUUACGACCUUGGGAGAAGGCGGAAUGCUAC [Xeonanis - 20 Mod35] (Eterna round: R96, puzzle: Same State NG 2) | 34.7 | 307 | 210 |  |  | 

Row | Sequence | apparent KD of MS2 coat protein (input ligand: FMN 200 uM) [nM] | apparent KD of MS2 coat protein [1] [nM] | apparent KD of MS2 coat protein (input ligand: none) [nM] | apparent KD of MS2 coat protein [2] [nM] | apparent KD of MS2 coat protein [3] [nM] | apparent KD of MS2 coat protein [4] [nM]
17 | AAUAAACAUGAGGAUCACCCAUGUAGUGCUUUAGCAGGAUAUGUGAGGAUCAAAUCCAUGGCAGAAGGGUUAUGGC [Inondiorbi] (puzzle: Same State 1) |  |  |  | 20.1 | 43 | 67.1
18 | AUUAAACAUGAGGAUCACCCAUGUCUACAAAGUCGAGGAUAUGGGCAAAUAAAAUAAGAACCAGAAGGCGAAUAAU [salish99_ss1_r3_072] (puzzle: Same State 1) |  |  |  | 60.3 | 613 | 533
19 | GUAGCAUACCGAGGAUAUUCAUACCGGAAACGGACAUGAGGAUCACCCAUGUGGCGAAAGCCUUGGGAGAAGGCGGAAUGCUAC [Xeonanis - 20 Mod75] (Eterna round: R96, puzzle: Same State NG 2) | 18.4 | 341 | 675 |  |  | 
20 | GUGGUGAAUUAAGGAUAUCGAGUCUAGAUGUUAAACAUGAGGAUCACCCAUGUGGGUUGCGGUGUCGAGAAGGUAAUUUACGGG [salish99_SSNG2_r04_508] (Eterna round: R96, puzzle: Same State NG 2) |  | 52.6 |  |  |  | 
21 | UGCAUACAUGAGGAUCACCCAUGUCUACGAUGUCGAGGAUAUGGAUUGCCGUGAGGCGUGCCAGAAGGCGAAGUGG [Same State 1 - Mod of Vinnie Teenbexe v.2] (puzzle: Same State 1) |  |  |  | 26.2 | 33.7 | 30.1
22 | AUUAAACAUGAGGAUCACCCAUGUCAACAAAGUCGAGGAUAUGGGCAAAUAAAAUAAGUACCAGAAGGCGAAUAAU [salish99_ss1_r3_066] (puzzle: Same State 1) |  |  |  |  | 149 | 
23 | GCUAGAAUUAAUGCUAACAUGAGGAUCACCCAUGUAUGUUGGCAGGAUAUCGUUUGCUUUGCAAACGAGAAGGGCCAUACUAGC [JL SSNG3 1.09] (Eterna round: R96, puzzle: Same State NG 3) | 20 | 14 | 26.3 |  |  | 
24 | GGUCGGACUCACAUGAGGAUCACCCAUGUUGCGGAAACGCGGCAGGAUAUCUGUCCGAAAAGGUCAGAGAAGGGCUAACCGACC [Fiskers NG3ss - 56] (Eterna round: R96, puzzle: Same State NG 3) | 52.2 | 254 | 343 |  |  | 
25 | AUUUUCAAUGCAGGAUAUGAUUAACAUGAGGAUCACCCAUGUGGUGUUGUGAGUAAGGAGAGUGAUCAGAAGGGCAUUUUUUUU [JMF's solution 97] (Eterna round: R96, puzzle: Same State NG 2) | 428 | 371 | 486 |  |  | 
26 | GCUCGACGUAUUGUUUACAUGAGGAUCACCCAUGUAGGUGCGAAGGAUAUCUACGUGUUUCAUGUAGAGAAGGUCGUGUCGAGC [SameState NG3 #92] (Eterna round: R96, puzzle: Same State NG 3) | 19.3 | 42.5 | 54.1 |  |  | 
27 | AUUAUUAAUGCAGGAUAUGAUUAACAUGAGGAUCACCCAUGUGGUGUUGUGAGUAAGGAGAGUGAUCAGAAGGGCAUUUUUAUU [JMF's solution 13] (Eterna round: R96, puzzle: Same State NG 2) | 1020 | 353 | 808 |  |  | 
28 | CAAGCUUGGGUCUUCCCGCUCGUCUACAAACAUGAGGAUCACCCAUGUAUACUCUUCGCAUCAAUUCUAUCUCUUGG [Onraenbi] (puzzle: Sensor for hsa-mir-208a) |  |  |  | 210 | 23.3 | 272
29 | GGCAGGUGCAGGCUUGCUUGCACCUGGAAACAUGAGGAUCACCCAUGUUUGGGACAAGCUUUGCUCCUCGUCUUGUC [JL ViennaUCT Isusreraar mod 2] (Eterna round: R96, puzzle: Sensor for hsa-mir-208a) | 38.4 | 39.2 | 42.8 |  |  | 
30 | GGUCCAGCCUGAGCUGGACCGAAGCAUGUACAUGAGGAUCACCCAUGUCAUGUACAAGCUUUUUGCUCGUCUUAUUG [JL-shm-2.09 JL Mod] (puzzle: Sensor for hsa-mir-208a) |  |  |  | 307 | 14.9 | 285
31 | UUUGGGUGGCUGGAGGAUAUUCUUGUGGUUACAUGAGGAUCACCCAUGUGUCGCGCGGUGCGCGAGGAGAAGGCUGGCGGCCGUU (puzzle: Same State 2) |  |  |  |  | 186 | 
32 | AAAAGAAACGCAGGAUAUGCACAUGAGGAUCACCCAUGUCCCACGGGCUCGACCGAGCCUGUGAAGCAGAAGGGUGUAAGAAAA [Erleusor] (Eterna round: R96, puzzle: Same State NG 2) | 54.1 | 208 | 74.7 |  |  | 

Source: the supplement of paper PMC9170038
